From patent publication US20250051476A1 (ABDERA THERAPEUTICS, published 2025)
Where two headings read alike, the source gives them in different places. Values belong to the binder of their own block, whether it stands above or below them.

Assays:
[1] = target: T1, DLL3 ECD (human, UniProt Q9NYJ7); experiment: ELISA on coated full length DLL3 ECD (2 ug/ml), anti-hIgG-Fc-HRP, A450
T1 construct: recombinant ECD aa 27-492; also called full length DLL3 ECD (aa 27-492, Cat #ab255797, Abcam); human DLL3.HIS
T1 sequence (antigen, looked up): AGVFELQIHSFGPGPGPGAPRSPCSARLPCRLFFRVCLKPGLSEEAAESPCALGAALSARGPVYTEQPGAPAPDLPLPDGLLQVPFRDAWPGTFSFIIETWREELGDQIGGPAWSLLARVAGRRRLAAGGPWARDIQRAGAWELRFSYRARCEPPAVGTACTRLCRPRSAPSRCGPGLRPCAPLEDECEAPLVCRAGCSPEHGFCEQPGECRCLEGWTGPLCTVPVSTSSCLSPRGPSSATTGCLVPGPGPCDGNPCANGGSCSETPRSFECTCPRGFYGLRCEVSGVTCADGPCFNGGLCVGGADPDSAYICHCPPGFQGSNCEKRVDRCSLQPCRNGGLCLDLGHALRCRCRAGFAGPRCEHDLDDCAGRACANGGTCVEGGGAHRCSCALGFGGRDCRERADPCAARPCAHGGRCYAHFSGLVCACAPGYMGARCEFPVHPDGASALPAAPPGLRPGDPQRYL

[2] = target: T2, DLL3 on cells (SHP-77, NCI-H82, HEK-DLL3, membrane proteome array cells) (human, UniProt Q9NYJ7 27-618); experiment: flow cytometry on SHP-77 cells, Geomeans RL1-H
T2 construct: whole, on cells; also called hDLL3
T2 sequence (looked up): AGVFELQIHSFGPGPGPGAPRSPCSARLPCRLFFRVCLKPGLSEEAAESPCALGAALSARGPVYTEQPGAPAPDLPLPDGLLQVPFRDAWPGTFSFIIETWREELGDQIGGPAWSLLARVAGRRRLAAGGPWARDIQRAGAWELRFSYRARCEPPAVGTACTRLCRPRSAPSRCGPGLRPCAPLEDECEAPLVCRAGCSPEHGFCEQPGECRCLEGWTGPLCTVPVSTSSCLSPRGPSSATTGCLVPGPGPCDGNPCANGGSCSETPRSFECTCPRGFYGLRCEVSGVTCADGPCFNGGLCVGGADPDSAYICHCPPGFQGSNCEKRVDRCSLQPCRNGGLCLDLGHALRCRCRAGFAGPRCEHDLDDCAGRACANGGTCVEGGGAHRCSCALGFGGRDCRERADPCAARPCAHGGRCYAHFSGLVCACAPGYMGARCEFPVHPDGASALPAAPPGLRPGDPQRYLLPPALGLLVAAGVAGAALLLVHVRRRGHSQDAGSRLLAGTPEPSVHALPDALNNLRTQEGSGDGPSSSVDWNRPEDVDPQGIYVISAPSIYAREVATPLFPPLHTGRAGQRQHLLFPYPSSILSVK

[3] = target: T2, DLL3 on cells (SHP-77, NCI-H82, …); experiment: flow cytometry on SHP-77 cells, Geomeans RL1-H; remark: listed apart in the source
[4] = target: T3, DLL3 EGF1-6(mIgG2aCH2-CH3) (human); experiment: Octet BLI, VHH-Fc captured on AHC sensor, DLL3 EGF1-6-mIgG2a Fc titrated
T3 construct: also called hDLL3 EGF domain construct; DLL3 EGF1-6 domain
T3 chain: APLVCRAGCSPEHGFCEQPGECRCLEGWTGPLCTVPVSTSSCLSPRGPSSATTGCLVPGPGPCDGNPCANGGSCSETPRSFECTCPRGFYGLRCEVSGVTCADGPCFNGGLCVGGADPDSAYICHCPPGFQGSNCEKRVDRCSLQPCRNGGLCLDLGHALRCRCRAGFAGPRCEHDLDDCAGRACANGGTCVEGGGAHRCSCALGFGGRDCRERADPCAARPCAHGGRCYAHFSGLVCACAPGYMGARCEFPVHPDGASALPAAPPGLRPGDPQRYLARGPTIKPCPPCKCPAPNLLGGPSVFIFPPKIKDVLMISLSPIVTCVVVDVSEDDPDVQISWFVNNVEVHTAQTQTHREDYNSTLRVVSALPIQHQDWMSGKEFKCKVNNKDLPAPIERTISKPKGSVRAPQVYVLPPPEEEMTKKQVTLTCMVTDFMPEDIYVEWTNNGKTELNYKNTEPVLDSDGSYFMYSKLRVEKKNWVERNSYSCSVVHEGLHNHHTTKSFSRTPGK

[5] = target: T4, hDLL3 EGF1-6 (aa 216-492) fused to mIgG2a CH2-CH3 Fc (human); experiment: ELISA on coated hDLL3 EGF1-6-mIgG2a Fc (2 ug/ml), anti-hIgG-Fc-HRP, A450
T4 construct: also called DLL3 EGF1-6(mIgG2aCH2-CH3); hDLL3 EGF domain construct
T4 chain: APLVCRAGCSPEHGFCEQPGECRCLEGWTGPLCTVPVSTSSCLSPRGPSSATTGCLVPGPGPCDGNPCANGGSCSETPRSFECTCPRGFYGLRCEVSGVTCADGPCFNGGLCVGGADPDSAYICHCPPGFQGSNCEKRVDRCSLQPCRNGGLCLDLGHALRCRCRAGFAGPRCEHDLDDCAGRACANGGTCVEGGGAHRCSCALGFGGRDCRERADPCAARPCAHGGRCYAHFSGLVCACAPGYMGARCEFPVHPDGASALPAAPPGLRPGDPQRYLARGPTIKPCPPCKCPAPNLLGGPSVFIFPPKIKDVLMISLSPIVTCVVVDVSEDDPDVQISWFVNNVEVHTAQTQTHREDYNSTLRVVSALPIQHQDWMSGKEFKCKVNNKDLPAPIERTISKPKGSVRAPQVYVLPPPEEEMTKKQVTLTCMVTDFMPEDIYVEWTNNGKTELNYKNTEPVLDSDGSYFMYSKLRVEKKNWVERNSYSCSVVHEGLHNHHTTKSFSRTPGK

[6] = target: T5, mouse DLL3 (mouse, UniProt O88516 25-477, limits assumed); experiment: ELISA
T5 construct: also called mDLL3; murine DLL3
T5 sequence (looked up): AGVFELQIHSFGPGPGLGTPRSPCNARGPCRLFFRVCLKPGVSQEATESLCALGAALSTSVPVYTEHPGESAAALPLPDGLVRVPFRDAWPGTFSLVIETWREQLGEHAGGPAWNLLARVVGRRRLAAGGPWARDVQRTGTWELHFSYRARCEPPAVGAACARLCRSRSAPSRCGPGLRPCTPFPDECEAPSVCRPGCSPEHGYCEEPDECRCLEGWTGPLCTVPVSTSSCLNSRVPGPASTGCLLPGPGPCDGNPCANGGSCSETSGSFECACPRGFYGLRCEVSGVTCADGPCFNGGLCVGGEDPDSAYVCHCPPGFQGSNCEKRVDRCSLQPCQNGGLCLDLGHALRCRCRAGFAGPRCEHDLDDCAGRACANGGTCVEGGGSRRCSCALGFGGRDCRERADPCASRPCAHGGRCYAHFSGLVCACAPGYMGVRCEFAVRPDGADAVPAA

[7] = target: T2, DLL3 on cells (SHP-77, NCI-H82, …); experiment: flow cytometry on DLL3 expressing SHP-77 cells

- binding result [5]: no binding (tested: 100 nM)
B3: 126 (parental VHHFc of Example 41) (Fc fusion)
chain: QVQLVESGGGMVQPGGSLRLSCAASGITFSMYSMSWYRQPPGKQRELVAATTTFGSTNYADSVKGRFTISRDNAKNTVYLQMNSLKPEDTAVYLCNARFTSEEYWGQGTQVTVSS
notes: Parental VHHFc; not shown: hinge and Fc

- binding result [6]: no binding
- EC50 (read off the curve) [2]: ~0.07 nM
- EC50 (read off the curve) [3]: ~0.1 nM
- binding result [4]: no binding
B4: 126_zu2 (Fc fusion)
chain: QVQLVESGGGLVQPGGSLRLSCAASGITFSMYSMSWFRQAPGQGLELVAATTTFGSTNYADSVKGRFTISRDNSKNTLYLQMNSLRAEDTAVYYCAARFTSEEYWGQGTLVTVSSEPKSSDKTHTCPPCPAPEAEGAPSVFLFPPKPKDTLMISRTPEVTCVVVDVSHEDPEVKFNWYVDGVEVHNAKTKPREEQYNSTYRVVSVLTVLHQDWLNGKEYKCKVSNKALPSSIEKTISKAKGQPREPQVYTLPPSREEMTKNQVSLTCLVKGFYPSDIAVEWESNGQPENNYKTTPPVLDSDGSFFLYSKLTVDKSRWQQGNVFSCSVMHEALHNQYTQKSLSLSPG
notes: Humanized VHH-Fc

- binding result [7]: binds
B5: 126_zu1 (Fc fusion)
chain: QVQLVESGGGLVQPGGSLRLSCAASGITFSMYSMSWFRQAPGQGLEAVAATTTFGSTNYADSVKGRFTISRDNSKNTLYLQMNSLRAEDTAVYYCAARFTSEEYWGQGTLVTVSSEPKSSDKTHTCPPCPAPEAEGAPSVFLFPPKPKDTLMISRTPEVTCVVVDVSHEDPEVKFNWYVDGVEVHNAKTKPREEQYNSTYRVVSVLTVLHQDWLNGKEYKCKVSNKALPSSIEKTISKAKGQPREPQVYTLPPSREEMTKNQVSLTCLVKGFYPSDIAVEWESNGQPENNYKTTPPVLDSDGSFFLYSKLTVDKSRWQQGNVFSCSVMHEALHNQYTQKSLSLSPG
notes: Humanized VHHFc

Second part, the binder before the results:

B1: Sc16.23 (antibody, V domains shown)
VH: QVTLKESGPGILQPSQTLSLTCSFSGFSLSTSNTGIGWIRQPSGTGLEWLAHIWWNDDKYYNPSLKSRLTISKETSNNQVFLKITNVDTADTASYFCVQIGRDYSNYAWYFDVWGAGTTVTVSS
VL: QIVLTQSPAIMSASPGEKVTLTCSASSSVSSRYLYWYQQKPGSSPKLWIYSTSNLASGVPARFSGSGSGTSYSLIISSMEAEDAASYFCHQWSNYPLTFGAGTKLELK
- EC50 (read off the curve) [1]: ~0.8 nM

B2: 107_zu2 (Fc fusion)
chain: QVQLVESGGGLVQPGGSLRLSCAASDRTFSSYAVGWFRQAPGQGLEFVAAISWNGGRTLYTDSVTGRFTISRDNSKNTLYLQMNSLRAEDTAVYYCAARPAAPTRRLEYDYWGQGTLVTVSSEPKSSDKTHTCPPCPAPEAEGAPSVFLFPPKPKDTLMISRTPEVTCVVVDVSHEDPEVKFNWYVDGVEVHNAKTKPREEQYNSTYRVVSVLTVLHQDWLNGKEYKCKVSNKALPSSIEKTISKAKGQPREPQVYTLPPSREEMTKNQVSLTCLVKGFYPSDIAVEWESNGQPENNYKTTPPVLDSDGSFFLYSKLTVDKSRWQQGNVFSCSVMHEALHNQYTQKSLSLSPG
notes: Humanized VHH-Fc
- EC50 (read off the curve) [2]: ~0.2 nM
- EC50 (read off the curve) [3]: ~0.2 nM
- Kd [4]: 5.04 nM
- koff [4]: 0.000513 s⁻¹
- kon [4]: 102000 M⁻¹ s⁻¹
